Results on 11 molecules are retold here after patent US20260167699A1 (Chugai, published 2026).

For the assay, the target named is T1, FcγRIIIa (human, UniProt P08637 17-208).
T1 construct: extracellular domain; also called 3a; FcγRIIIa extracellular domain
Briefly: SPR (Biacore).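 Further: antibody variants captured on an SPR sensor chip, with FcγRIIIa passed over as analyte in HBS-EP+ buffer at 25 °C.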 In general terms: In SPR one partner is held on a chip, and binding of the other changes the refractive index at the surface.

T1 sequence (P08637 other isoform, or with tags, fused parts or gaps): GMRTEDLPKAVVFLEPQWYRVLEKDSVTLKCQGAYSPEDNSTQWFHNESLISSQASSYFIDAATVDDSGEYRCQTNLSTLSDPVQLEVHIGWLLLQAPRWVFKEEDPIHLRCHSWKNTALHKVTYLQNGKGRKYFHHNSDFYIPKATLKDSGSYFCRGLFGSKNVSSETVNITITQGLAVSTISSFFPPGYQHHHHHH

B1: GpH7-A5/GpH7-B3 variant S298_12R/GpL16-k0 (antibody, human IgG1, kappa)
heavy 1: not shown
heavy 2: not shown
light: DIVMTQSPLSLPVTPGEPASISCQASESLVHSNRNTYLHWYLQKPGQSPQLLIYKVSNRFSGVPDRFSGSGSGTDFTLKISRVEAEDVGVYYCSQNTHVPPTFGQGTKVEIERTVAAPSVFIFPPSDEQLKSGTASVVCLLNNFYPREAKVQWKVDNALQSGNSQESVTEQDSKDSTYSLSSTLTLSKADYEKHKVYACEVTHQGLSSPVTKSFNRGEC
notes: copies: 1 + 1 + 2
On to B1, for which the “He/Con 3a” value is 52.1 % of GpH7-A5/GpH7-B3/GpL16-k0.

B2: GpH7-A5/GpH7-B3 variant S324_09D/GpL16-k0 (antibody, human IgG1, kappa)
heavy 1: not shown
heavy 2: not shown
light: DIVMTQSPLSLPVTPGEPASISCQASESLVHSNRNTYLHWYLQKPGQSPQLLIYKVSNRFSGVPDRFSGSGSGTDFTLKISRVEAEDVGVYYCSQNTHVPPTFGQGTKVEIERTVAAPSVFIFPPSDEQLKSGTASVVCLLNNFYPREAKVQWKVDNALQSGNSQESVTEQDSKDSTYSLSSTLTLSKADYEKHKVYACEVTHQGLSSPVTKSFNRGEC
notes: copies: 1 + 1 + 2
Consider B2, for which the “He/Con 3a” value was 110 % of GpH7-A5/GpH7-B3/GpL16-k0.

B3: GpH7-A5/GpH7-B3 variant S324_03V/GpL16-k0 (antibody, human IgG1, kappa)
heavy 1: not shown
heavy 2: not shown
light: DIVMTQSPLSLPVTPGEPASISCQASESLVHSNRNTYLHWYLQKPGQSPQLLIYKVSNRFSGVPDRFSGSGSGTDFTLKISRVEAEDVGVYYCSQNTHVPPTFGQGTKVEIERTVAAPSVFIFPPSDEQLKSGTASVVCLLNNFYPREAKVQWKVDNALQSGNSQESVTEQDSKDSTYSLSSTLTLSKADYEKHKVYACEVTHQGLSSPVTKSFNRGEC
notes: copies: 1 + 1 + 2
Regarding B3, the “He/Con 3a” value is 101 % of GpH7-A5/GpH7-B3/GpL16-k0.

B4: GpH7-A5/GpH7-B3 variant S298_16H/GpL16-k0 (antibody, human IgG1, kappa)
heavy 1: not shown
heavy 2: not shown
light: DIVMTQSPLSLPVTPGEPASISCQASESLVHSNRNTYLHWYLQKPGQSPQLLIYKVSNRFSGVPDRFSGSGSGTDFTLKISRVEAEDVGVYYCSQNTHVPPTFGQGTKVEIERTVAAPSVFIFPPSDEQLKSGTASVVCLLNNFYPREAKVQWKVDNALQSGNSQESVTEQDSKDSTYSLSSTLTLSKADYEKHKVYACEVTHQGLSSPVTKSFNRGEC
notes: copies: 1 + 1 + 2
In the case of B4, the “He/Con 3a” value is 71.9 % of GpH7-A5/GpH7-B3/GpL16-k0.

B5: GpH7-A5/GpH7-B3 variant S324_12R/GpL16-k0 (antibody, human IgG1, kappa)
heavy 1: not shown
heavy 2: not shown
light: DIVMTQSPLSLPVTPGEPASISCQASESLVHSNRNTYLHWYLQKPGQSPQLLIYKVSNRFSGVPDRFSGSGSGTDFTLKISRVEAEDVGVYYCSQNTHVPPTFGQGTKVEIERTVAAPSVFIFPPSDEQLKSGTASVVCLLNNFYPREAKVQWKVDNALQSGNSQESVTEQDSKDSTYSLSSTLTLSKADYEKHKVYACEVTHQGLSSPVTKSFNRGEC
notes: copies: 1 + 1 + 2
For B5, the “He/Con 3a” value was 98.1 % of GpH7-A5/GpH7-B3/GpL16-k0.

B6: GpH7-A5/GpH7-B3 variant S324_18N/GpL16-k0 (antibody, human IgG1, kappa)
heavy 1: not shown
heavy 2: not shown
light: DIVMTQSPLSLPVTPGEPASISCQASESLVHSNRNTYLHWYLQKPGQSPQLLIYKVSNRFSGVPDRFSGSGSGTDFTLKISRVEAEDVGVYYCSQNTHVPPTFGQGTKVEIERTVAAPSVFIFPPSDEQLKSGTASVVCLLNNFYPREAKVQWKVDNALQSGNSQESVTEQDSKDSTYSLSSTLTLSKADYEKHKVYACEVTHQGLSSPVTKSFNRGEC
notes: copies: 1 + 1 + 2
With B6, the “He/Con 3a” value is 103 % of GpH7-A5/GpH7-B3/GpL16-k0.

B7: GpH7-A5/GpH7-B3 variant S298_18N/GpL16-k0 (antibody, human IgG1, kappa)
heavy 1: not shown
heavy 2: not shown
light: DIVMTQSPLSLPVTPGEPASISCQASESLVHSNRNTYLHWYLQKPGQSPQLLIYKVSNRFSGVPDRFSGSGSGTDFTLKISRVEAEDVGVYYCSQNTHVPPTFGQGTKVEIERTVAAPSVFIFPPSDEQLKSGTASVVCLLNNFYPREAKVQWKVDNALQSGNSQESVTEQDSKDSTYSLSSTLTLSKADYEKHKVYACEVTHQGLSSPVTKSFNRGEC
notes: copies: 1 + 1 + 2
Take B7: the “He/Con 3a” value is 51.4 % of GpH7-A5/GpH7-B3/GpL16-k0.

B8: GpH7-A5/GpH7-B3 variant S324_16H/GpL16-k0 (antibody, human IgG1, kappa)
heavy 1: not shown
heavy 2: not shown
light: DIVMTQSPLSLPVTPGEPASISCQASESLVHSNRNTYLHWYLQKPGQSPQLLIYKVSNRFSGVPDRFSGSGSGTDFTLKISRVEAEDVGVYYCSQNTHVPPTFGQGTKVEIERTVAAPSVFIFPPSDEQLKSGTASVVCLLNNFYPREAKVQWKVDNALQSGNSQESVTEQDSKDSTYSLSSTLTLSKADYEKHKVYACEVTHQGLSSPVTKSFNRGEC
notes: copies: 1 + 1 + 2
With B8, the “He/Con 3a” value is 113 % of GpH7-A5/GpH7-B3/GpL16-k0.

B9: GpH7-A5/GpH7-B3 variant S298_14T/GpL16-k0 (antibody, human IgG1, kappa)
heavy 1: not shown
heavy 2: not shown
light: DIVMTQSPLSLPVTPGEPASISCQASESLVHSNRNTYLHWYLQKPGQSPQLLIYKVSNRFSGVPDRFSGSGSGTDFTLKISRVEAEDVGVYYCSQNTHVPPTFGQGTKVEIERTVAAPSVFIFPPSDEQLKSGTASVVCLLNNFYPREAKVQWKVDNALQSGNSQESVTEQDSKDSTYSLSSTLTLSKADYEKHKVYACEVTHQGLSSPVTKSFNRGEC
notes: copies: 1 + 1 + 2
For B9, the “He/Con 3a” value was 106 % of GpH7-A5/GpH7-B3/GpL16-k0.

B10: GpH7-A5/GpH7-B3 variant S324_08L/GpL16-k0 (antibody, human IgG1, kappa)
heavy 1: not shown
heavy 2: not shown
light: DIVMTQSPLSLPVTPGEPASISCQASESLVHSNRNTYLHWYLQKPGQSPQLLIYKVSNRFSGVPDRFSGSGSGTDFTLKISRVEAEDVGVYYCSQNTHVPPTFGQGTKVEIERTVAAPSVFIFPPSDEQLKSGTASVVCLLNNFYPREAKVQWKVDNALQSGNSQESVTEQDSKDSTYSLSSTLTLSKADYEKHKVYACEVTHQGLSSPVTKSFNRGEC
notes: copies: 1 + 1 + 2
Turning to B10, the “He/Con 3a” value is 95.5 % of GpH7-A5/GpH7-B3/GpL16-k0.

B11: GpH7-A5/GpH7-B3 variant S324_07I/GpL16-k0 (antibody, human IgG1, kappa)
heavy 1: not shown
heavy 2: not shown
light: DIVMTQSPLSLPVTPGEPASISCQASESLVHSNRNTYLHWYLQKPGQSPQLLIYKVSNRFSGVPDRFSGSGSGTDFTLKISRVEAEDVGVYYCSQNTHVPPTFGQGTKVEIERTVAAPSVFIFPPSDEQLKSGTASVVCLLNNFYPREAKVQWKVDNALQSGNSQESVTEQDSKDSTYSLSSTLTLSKADYEKHKVYACEVTHQGLSSPVTKSFNRGEC
notes: copies: 1 + 1 + 2
On to B11, for which the “He/Con 3a” value is 101 % of GpH7-A5/GpH7-B3/GpL16-k0.
